Here are results for four variants from IntAct's records for PubMed 9299557.

B1: Tumor necrosis factor alpha-induced protein 3 (Homo sapiens), P21580 (parent)
chain: MAEQVLPQALYLSNMRKAVKIRERTPEDIFKPTNGIIHHFKTMHRYTLEMFRTCQFCPQFREIIHKALIDRNIQATLESQKKLNWCREVRKLVALKTNGDGNCLMHATSQYMWGVQDTDLVLRKALFSTLKETDTRNFKFRWQLESLKSQEFVETGLCYDTRNWNDEWDNLIKMASTDTPMARSGLQYNSLEEIHIFVLCNILRRPIIVISDKMLRSLESGSNFAPLKVGGIYLPLHWPAQECYRYPIVLGYDSHHFVPLVTLKDSGPEIRAVPLVNRDRGRFEDLKVHFLTDPENEMKEKLLKEYLMVIEIPVQGWDHGTTHLINAAKLDEANLPKEINLVDDYFELVQHEYKKWQENSEQGRREGHAQNPMEPSVPQLSLMDVKCETPNCPFFMSVNTQPLCHECSERRQKNQNKLPKLNSKPGPEGLPGMALGASRGEAYEPLAWNPEESTGGPHSAPPTAPSPFLFSETTAMKCRSPGCPFTLNVQHNGFCERCHNARQLHASHAPDHTRHLDPGKCQACLQDVTRTFNGICSTCFKRTTAEASSSLSTSLPPSCHQRSKSDPSRLVRSPSPHSCHRAGNDAPAGCLSQAARTPGDRTGTSKCRKAGCVYFGTPENKGFCTLCFIEYRENKHFAAASGKVSPTASRFQNTIPCLGRECGTLGSTMFEGYCQKCFIEAQNQRFHEAKRTEEQLRSSQRRDVPRTTQSTSRPKCARASCKNILACRSEELCMECQHPNQRMGPGAHRGEPAPEDPPKQRCRAPACDHFGNAKCNGYCNECFQFKQMYG
partner: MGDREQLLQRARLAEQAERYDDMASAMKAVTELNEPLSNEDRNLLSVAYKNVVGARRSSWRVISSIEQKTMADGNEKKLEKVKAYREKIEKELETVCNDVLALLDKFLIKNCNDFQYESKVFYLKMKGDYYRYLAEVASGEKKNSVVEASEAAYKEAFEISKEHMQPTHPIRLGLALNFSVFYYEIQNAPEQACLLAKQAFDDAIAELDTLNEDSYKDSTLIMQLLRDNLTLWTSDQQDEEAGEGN
B2: Tumor necrosis factor alpha-induced protein 3 (Homo sapiens), P21580 (parent)
chain: B1 chain

One assay covers variants of B1. The conditions noted are these: with 1433f_mouse Ywhah.
As to S565A, the “effect of a mutation on the interaction” value is recorded as “disrupting interaction”.

R562A: the “effect of a mutation on the interaction” value is “disrupting interaction”.

A further assay covers variants of B2. Particulars: with 1433z_mouse Ywhaz.
As to S565A, the “effect of a mutation on the interaction” value is given as “disrupting interaction”.

In the case of R562A, the “effect of a mutation on the interaction” value is “disrupting interaction”.
